Data taken from patent US12679878B2, “CRF2 receptor agonists and their use in therapy” (SANOFI, priority 2020, dated 2026).
Starred links: 1 amine or outer side, 2 acyl side, 3 side chain; linkers in the order of their positions; H or OH if unused. Non-standard residues stand in square brackets, D forms with d. Groups on a side chain read outwards from the residue. No end group written: not given here. *: point of attachment. C18 diacid = O=C(O)CCCCCCCCCCCCCCCCC(=O)*; γGlu = O=C(O)[C@H](CCC(=O)[*:2])N[*:1]; AEEA = NCCOCCOCC(=O)O; Aib = CC(C)(N)C(=O)O

Target: human corticotropin-releasing factor 2α (CRF2 α receptor) (human), Q13324
Assay: cell-based or functional assay

Chain of human corticotropin-releasing factor 2α (CRF2 α receptor) (human), Q13324 (Q13324 20-411): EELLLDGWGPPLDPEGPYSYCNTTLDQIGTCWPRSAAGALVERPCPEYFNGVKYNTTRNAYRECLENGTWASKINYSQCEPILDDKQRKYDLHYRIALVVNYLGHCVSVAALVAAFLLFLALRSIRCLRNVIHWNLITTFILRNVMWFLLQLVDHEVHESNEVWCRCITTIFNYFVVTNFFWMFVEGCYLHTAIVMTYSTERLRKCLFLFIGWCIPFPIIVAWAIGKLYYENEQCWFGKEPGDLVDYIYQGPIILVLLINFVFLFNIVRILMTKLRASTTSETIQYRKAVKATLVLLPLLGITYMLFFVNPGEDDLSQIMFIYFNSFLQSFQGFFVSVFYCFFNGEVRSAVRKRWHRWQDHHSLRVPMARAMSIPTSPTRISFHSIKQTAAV

B1: SEQ ID NO: 133 (peptide)
peptide: IVLSLD[dV]PIKLK([AEEA-AEEA-γGlu-C18 diacid])QILLKQERQK[Aib]QREQAEKNKQILERV-NH2
modifications: N-terminus assumed
SMILES: CC[C@H](C)[C@H](N)C(=O)N[C@H](C(=O)N[C@@H](CC(C)C)C(=O)N[C@@H](CO)C(=O)N[C@@H](CC(C)C)C(=O)N[C@@H](CC(=O)O)C(=O)N[C@@H](C(=O)N1CCC[C@H]1C(=O)N[C@H](C(=O)N[C@@H](CCCCN)C(=O)N[C@@H](CC(C)C)C(=O)N[C@@H](CCCCNC(=O)COCCOCCNC(=O)COCCOCCNC(=O)CC[C@H](NC(=O)CCCCCCCCCCCCCCCCC(=O)O)C(=O)O)C(=O)N[C@@H](CCC(N)=O)C(=O)N[C@H](C(=O)N[C@@H](CC(C)C)C(=O)N[C@@H](CC(C)C)C(=O)N[C@@H](CCCCN)C(=O)N[C@@H](CCC(N)=O)C(=O)N[C@@H](CCC(=O)O)C(=O)N[C@@H](CCCNC(=N)N)C(=O)N[C@@H](CCC(N)=O)C(=O)N[C@@H](CCCCN)C(=O)NC(C)(C)C(=O)N[C@@H](CCC(N)=O)C(=O)N[C@@H](CCCNC(=N)N)C(=O)N[C@@H](CCC(=O)O)C(=O)N[C@@H](CCC(N)=O)C(=O)N[C@@H](C)C(=O)N[C@@H](CCC(=O)O)C(=O)N[C@@H](CCCCN)C(=O)N[C@@H](CC(N)=O)C(=O)N[C@@H](CCCCN)C(=O)N[C@@H](CCC(N)=O)C(=O)N[C@H](C(=O)N[C@@H](CC(C)C)C(=O)N[C@@H](CCC(=O)O)C(=O)N[C@@H](CCCNC(=N)N)C(=O)N[C@H](C(N)=O)C(C)C)[C@@H](C)CC)[C@@H](C)CC)[C@@H](C)CC)C(C)C)C(C)C
B1 showed an EC50 [nM], 0% HSA of 0.09 nM and an EC50 [nM], 0.1% HSA of 3.19 nM.

B2: SEQ ID NO: 135 (peptide)
peptide: IVLSLD[dV]PIKLK([AEEA-AEEA-γGlu-C18 diacid])QILLKQERQK[Aib]QRQQAEKNKQILAQV-NH2
modifications: N-terminus assumed
SMILES: CC[C@H](C)[C@H](N)C(=O)N[C@H](C(=O)N[C@@H](CC(C)C)C(=O)N[C@@H](CO)C(=O)N[C@@H](CC(C)C)C(=O)N[C@@H](CC(=O)O)C(=O)N[C@@H](C(=O)N1CCC[C@H]1C(=O)N[C@H](C(=O)N[C@@H](CCCCN)C(=O)N[C@@H](CC(C)C)C(=O)N[C@@H](CCCCNC(=O)COCCOCCNC(=O)COCCOCCNC(=O)CC[C@H](NC(=O)CCCCCCCCCCCCCCCCC(=O)O)C(=O)O)C(=O)N[C@@H](CCC(N)=O)C(=O)N[C@H](C(=O)N[C@@H](CC(C)C)C(=O)N[C@@H](CC(C)C)C(=O)N[C@@H](CCCCN)C(=O)N[C@@H](CCC(N)=O)C(=O)N[C@@H](CCC(=O)O)C(=O)N[C@@H](CCCNC(=N)N)C(=O)N[C@@H](CCC(N)=O)C(=O)N[C@@H](CCCCN)C(=O)NC(C)(C)C(=O)N[C@@H](CCC(N)=O)C(=O)N[C@@H](CCCNC(=N)N)C(=O)N[C@@H](CCC(N)=O)C(=O)N[C@@H](CCC(N)=O)C(=O)N[C@@H](C)C(=O)N[C@@H](CCC(=O)O)C(=O)N[C@@H](CCCCN)C(=O)N[C@@H](CC(N)=O)C(=O)N[C@@H](CCCCN)C(=O)N[C@@H](CCC(N)=O)C(=O)N[C@H](C(=O)N[C@@H](CC(C)C)C(=O)N[C@@H](C)C(=O)N[C@@H](CCC(N)=O)C(=O)N[C@H](C(N)=O)C(C)C)[C@@H](C)CC)[C@@H](C)CC)[C@@H](C)CC)C(C)C)C(C)C
Binder B2 has an EC50 [nM], 0% HSA of 0.04 nM and an EC50 [nM], 0.1% HSA of 1.48 nM.

B3: SEQ ID NO: 136 (peptide)
peptide: IVLSLD[dV]PIKLK([AEEA-AEEA-γGlu-C18 diacid])QILLKQERQKK[Aib]RQKAEKNKQILAQV-NH2
modifications: N-terminus assumed
SMILES: CC[C@H](C)[C@H](N)C(=O)N[C@H](C(=O)N[C@@H](CC(C)C)C(=O)N[C@@H](CO)C(=O)N[C@@H](CC(C)C)C(=O)N[C@@H](CC(=O)O)C(=O)N[C@@H](C(=O)N1CCC[C@H]1C(=O)N[C@H](C(=O)N[C@@H](CCCCN)C(=O)N[C@@H](CC(C)C)C(=O)N[C@@H](CCCCNC(=O)COCCOCCNC(=O)COCCOCCNC(=O)CC[C@H](NC(=O)CCCCCCCCCCCCCCCCC(=O)O)C(=O)O)C(=O)N[C@@H](CCC(N)=O)C(=O)N[C@H](C(=O)N[C@@H](CC(C)C)C(=O)N[C@@H](CC(C)C)C(=O)N[C@@H](CCCCN)C(=O)N[C@@H](CCC(N)=O)C(=O)N[C@@H](CCC(=O)O)C(=O)N[C@@H](CCCNC(=N)N)C(=O)N[C@@H](CCC(N)=O)C(=O)N[C@@H](CCCCN)C(=O)N[C@@H](CCCCN)C(=O)NC(C)(C)C(=O)N[C@@H](CCCNC(=N)N)C(=O)N[C@@H](CCC(N)=O)C(=O)N[C@@H](CCCCN)C(=O)N[C@@H](C)C(=O)N[C@@H](CCC(=O)O)C(=O)N[C@@H](CCCCN)C(=O)N[C@@H](CC(N)=O)C(=O)N[C@@H](CCCCN)C(=O)N[C@@H](CCC(N)=O)C(=O)N[C@H](C(=O)N[C@@H](CC(C)C)C(=O)N[C@@H](C)C(=O)N[C@@H](CCC(N)=O)C(=O)N[C@H](C(N)=O)C(C)C)[C@@H](C)CC)[C@@H](C)CC)[C@@H](C)CC)C(C)C)C(C)C
In the case of B3, the EC50 [nM], 0% HSA is reported as 0.05 nM and the EC50 [nM], 0.1% HSA is reported as 2.41 nM.

B4: SEQ ID NO: 137 (peptide)
peptide: IVLSLD[dV]PIKLK([AEEA-AEEA-γGlu-C18 diacid])QILLKQERQKKQREQAEKNKQILEQV-NH2
modifications: N-terminus assumed
SMILES: CC[C@H](C)[C@H](N)C(=O)N[C@H](C(=O)N[C@@H](CC(C)C)C(=O)N[C@@H](CO)C(=O)N[C@@H](CC(C)C)C(=O)N[C@@H](CC(=O)O)C(=O)N[C@@H](C(=O)N1CCC[C@H]1C(=O)N[C@H](C(=O)N[C@@H](CCCCN)C(=O)N[C@@H](CC(C)C)C(=O)N[C@@H](CCCCNC(=O)COCCOCCNC(=O)COCCOCCNC(=O)CC[C@H](NC(=O)CCCCCCCCCCCCCCCCC(=O)O)C(=O)O)C(=O)N[C@@H](CCC(N)=O)C(=O)N[C@H](C(=O)N[C@@H](CC(C)C)C(=O)N[C@@H](CC(C)C)C(=O)N[C@@H](CCCCN)C(=O)N[C@@H](CCC(N)=O)C(=O)N[C@@H](CCC(=O)O)C(=O)N[C@@H](CCCNC(=N)N)C(=O)N[C@@H](CCC(N)=O)C(=O)N[C@@H](CCCCN)C(=O)N[C@@H](CCCCN)C(=O)N[C@@H](CCC(N)=O)C(=O)N[C@@H](CCCNC(=N)N)C(=O)N[C@@H](CCC(=O)O)C(=O)N[C@@H](CCC(N)=O)C(=O)N[C@@H](C)C(=O)N[C@@H](CCC(=O)O)C(=O)N[C@@H](CCCCN)C(=O)N[C@@H](CC(N)=O)C(=O)N[C@@H](CCCCN)C(=O)N[C@@H](CCC(N)=O)C(=O)N[C@H](C(=O)N[C@@H](CC(C)C)C(=O)N[C@@H](CCC(=O)O)C(=O)N[C@@H](CCC(N)=O)C(=O)N[C@H](C(N)=O)C(C)C)[C@@H](C)CC)[C@@H](C)CC)[C@@H](C)CC)C(C)C)C(C)C
For B4, the EC50 [nM], 0% HSA was 0.04 nM and the EC50 [nM], 0.1% HSA was 1.78 nM.

B5: SEQ ID NO: 134 (peptide)
peptide: IVLSLD[dV]PIKLK([AEEA-AEEA-γGlu-C18 diacid])QILLKQERQK[Aib]QREKAEKNKQILAQV-NH2
modifications: N-terminus assumed
SMILES: CC[C@H](C)[C@H](N)C(=O)N[C@H](C(=O)N[C@@H](CC(C)C)C(=O)N[C@@H](CO)C(=O)N[C@@H](CC(C)C)C(=O)N[C@@H](CC(=O)O)C(=O)N[C@@H](C(=O)N1CCC[C@H]1C(=O)N[C@H](C(=O)N[C@@H](CCCCN)C(=O)N[C@@H](CC(C)C)C(=O)N[C@@H](CCCCNC(=O)COCCOCCNC(=O)COCCOCCNC(=O)CC[C@H](NC(=O)CCCCCCCCCCCCCCCCC(=O)O)C(=O)O)C(=O)N[C@@H](CCC(N)=O)C(=O)N[C@H](C(=O)N[C@@H](CC(C)C)C(=O)N[C@@H](CC(C)C)C(=O)N[C@@H](CCCCN)C(=O)N[C@@H](CCC(N)=O)C(=O)N[C@@H](CCC(=O)O)C(=O)N[C@@H](CCCNC(=N)N)C(=O)N[C@@H](CCC(N)=O)C(=O)N[C@@H](CCCCN)C(=O)NC(C)(C)C(=O)N[C@@H](CCC(N)=O)C(=O)N[C@@H](CCCNC(=N)N)C(=O)N[C@@H](CCC(=O)O)C(=O)N[C@@H](CCCCN)C(=O)N[C@@H](C)C(=O)N[C@@H](CCC(=O)O)C(=O)N[C@@H](CCCCN)C(=O)N[C@@H](CC(N)=O)C(=O)N[C@@H](CCCCN)C(=O)N[C@@H](CCC(N)=O)C(=O)N[C@H](C(=O)N[C@@H](CC(C)C)C(=O)N[C@@H](C)C(=O)N[C@@H](CCC(N)=O)C(=O)N[C@H](C(N)=O)C(C)C)[C@@H](C)CC)[C@@H](C)CC)[C@@H](C)CC)C(C)C)C(C)C
B5 showed an EC50 [nM], 0% HSA of 0.07 nM and an EC50 [nM], 0.1% HSA of 3.44 nM.

B6: SEQ ID NO: 138 (peptide)
peptide: IVLSLD[dV]PIKLK([AEEA-AEEA-γGlu-C18 diacid])QILLKQERQKKQREKAEKNKQILAQV-NH2
modifications: N-terminus assumed
SMILES: CC[C@H](C)[C@H](N)C(=O)N[C@H](C(=O)N[C@@H](CC(C)C)C(=O)N[C@@H](CO)C(=O)N[C@@H](CC(C)C)C(=O)N[C@@H](CC(=O)O)C(=O)N[C@@H](C(=O)N1CCC[C@H]1C(=O)N[C@H](C(=O)N[C@@H](CCCCN)C(=O)N[C@@H](CC(C)C)C(=O)N[C@@H](CCCCNC(=O)COCCOCCNC(=O)COCCOCCNC(=O)CC[C@H](NC(=O)CCCCCCCCCCCCCCCCC(=O)O)C(=O)O)C(=O)N[C@@H](CCC(N)=O)C(=O)N[C@H](C(=O)N[C@@H](CC(C)C)C(=O)N[C@@H](CC(C)C)C(=O)N[C@@H](CCCCN)C(=O)N[C@@H](CCC(N)=O)C(=O)N[C@@H](CCC(=O)O)C(=O)N[C@@H](CCCNC(=N)N)C(=O)N[C@@H](CCC(N)=O)C(=O)N[C@@H](CCCCN)C(=O)N[C@@H](CCCCN)C(=O)N[C@@H](CCC(N)=O)C(=O)N[C@@H](CCCNC(=N)N)C(=O)N[C@@H](CCC(=O)O)C(=O)N[C@@H](CCCCN)C(=O)N[C@@H](C)C(=O)N[C@@H](CCC(=O)O)C(=O)N[C@@H](CCCCN)C(=O)N[C@@H](CC(N)=O)C(=O)N[C@@H](CCCCN)C(=O)N[C@@H](CCC(N)=O)C(=O)N[C@H](C(=O)N[C@@H](CC(C)C)C(=O)N[C@@H](C)C(=O)N[C@@H](CCC(N)=O)C(=O)N[C@H](C(N)=O)C(C)C)[C@@H](C)CC)[C@@H](C)CC)[C@@H](C)CC)C(C)C)C(C)C
Binder B6 has an EC50 [nM], 0% HSA of 0.06 nM and an EC50 [nM], 0.1% HSA of 3.12 nM.
